Test results as given in publication PMC11672978, “Assessing the Impact of the Leader Peptide in Protease Inhibition by the Microviridin Family of RiPPs” (Biomedicines, 2024).
Blank lines part the entries; values can stand above or below the substance they belong to.

Assays:
[1] = molecular target: elastase; conditions: mature natural product without leader peptide; read-out: previously reported IC50 for elastase inhibition; cited from earlier work
Description: Although, the IC50 value we measured is certainly an overestimation of the actual IC50 as it is less than half the concentration of the elastase used in the assay.

[2] = molecular target: Elastase
[3] = molecular target: Elastase; remark: listed apart in the source

Substance: microviridin B
IC50 [1]: 25 nM

IC50 of inhibition of the hydrolysis of the fluorogenic substrate MeOSuc-AAPV-AMC by elastase (20 nM elastase, 0.1 nM-100 nM MdnA Δ3, 100 mM HEPES pH 8.0, 10% DMSO, room temperature) [2]: 8.3 nM
Substance: MdnA Δ3 (tricyclic, fully modified microviridin B precursor peptide with the leader peptide present, N-terminal His-tag)

IC50 of inhibition of the hydrolysis of the fluorogenic substrate MeOSuc-AAPV-AMC by elastase (20 nM elastase, 10 nM-10,000 nM MdnA Δ2, 100 mM HEPES pH 8.0, 10% DMSO, room temperature) [3]: 840 nM
Substance: MdnA Δ2 (bicyclic microviridin B precursor peptide modified by MdnC only, leader peptide present, N-terminal His-tag)
